Results on ten molecules are retold here after paper PMC7055227, “Complete Profiling of Methyl-CpG-Binding Domains for Combinations of Cytosine Modifications at CpG Dinucleotides Reveals Differential Read-out in Normal and Rett-Associated States”.

For series [1], the target named is hMeCP2 MBD (Homo sapiens, UniProt P51608 90-181). The experiment in a line: EMSA; 20 mM HEPES, 30 mM KCl, 1 mM EDTA, 10 mM (NH4)2SO4, pH 7.3, 1 mM DTT, 0.2% Tween 20, 50 ng/uL poly(dA)-poly(dT) trap, 2 nM duplex, protein in dialysis buffer with BSA; 20 min room temperature; gel at 4 C. To be noted: protein: recombinant, label: 5' 6-FAM on strand 1.
Chain of hMeCP2 MBD (Homo sapiens, UniProt P51608 90-181) (P51608 90-181): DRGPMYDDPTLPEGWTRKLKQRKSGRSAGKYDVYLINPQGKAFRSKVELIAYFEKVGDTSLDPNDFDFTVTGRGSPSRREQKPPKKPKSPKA
Series [2] addresses T1, hMBD4 MBD (Homo sapiens, UniProt O95243). Briefly: EMSA; higher than mC/hmC; EMSA: 20 mM HEPES pH 7.3, 30 mM KCl, 1 mM EDTA, 10 mM (NH4)2SO4, 1 mM DTT, 0.2% Tween 20, 50 ng/uL poly(dA)-poly(dT), protein diluted in dialysis buffer with 0.1 mg/mL BSA; 2 nM duplex; 20 min at room temperature; gel at 4 C. Conditions: protein: recombinant; tags: N-term SpA(Z)-Factor Xa-TEV, C-term 8xHis; label: 5' 6-FAM on strand 1; blunt.

In series [3] the target is T1, hMBD4 MBD. The experiment in a line: EMSA; new preferred combination; EMSA: 20 mM HEPES pH 7.3, 30 mM KCl, 1 mM EDTA, 10 mM (NH4)2SO4, 1 mM DTT, 0.2% Tween 20, 50 ng/uL poly(dA)-poly(dT), protein diluted in dialysis buffer with 0.1 mg/mL BSA; 2 nM duplex; 20 min at room temperature; gel at 4 C. Conditions: protein: recombinant; tags: N-term SpA(Z)-Factor Xa-TEV, C-term 8xHis; label: 5' 6-FAM on strand 1; blunt.

Series [4] has as its target hMeCP2 MBD (Homo sapiens, UniProt P51608). The experiment in a line: EMSA; poly(dA)-poly(dT) 50 ng/uL; EMSA: 20 mM HEPES pH 7.3, 30 mM KCl, 1 mM EDTA, 10 mM (NH4)2SO4, 1 mM DTT, 0.2% Tween 20, 50 ng/uL poly(dA)-poly(dT), protein diluted in dialysis buffer with 0.1 mg/mL BSA; 2 nM duplex; 20 min at room temperature; gel at 4 C. Conditions: protein: recombinant; tags: N-term SpA(Z)-Factor Xa-TEV, C-term 8xHis; label: 5' 6-FAM on strand 1; blunt.

Series [5] deals with T1, hMBD4 MBD. Briefly: EMSA; lower than mC/fC; EMSA: 20 mM HEPES pH 7.3, 30 mM KCl, 1 mM EDTA, 10 mM (NH4)2SO4, 1 mM DTT, 0.2% Tween 20, 50 ng/uL poly(dA)-poly(dT), protein diluted in dialysis buffer with 0.1 mg/mL BSA; 2 nM duplex; 20 min at room temperature; gel at 4 C. To be noted: protein: recombinant; tags: N-term SpA(Z)-Factor Xa-TEV, C-term 8xHis; label: 5' 6-FAM on strand 1; blunt.

T1 sequence (O95243 76-167): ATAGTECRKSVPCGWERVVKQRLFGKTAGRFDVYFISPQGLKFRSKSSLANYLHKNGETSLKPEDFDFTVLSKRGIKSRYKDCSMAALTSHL
Chain of hMeCP2 MBD (Homo sapiens, UniProt P51608) (P51608 90-181): as the sequence (P51608 90-181) above

B1: p10 hmC/hmC duplex (dsDNA)
DNA 1: AAAAAAAAAAACGAAAAAAAAAAA
DNA 2: TTTTTTTTTTTCGTTTTTTTTTTT
modifications: 5-hydroxymethylcytosine at C12 of strand 1 and C12 of strand 2 (o3115/o3112)
B1: in series [1], the Kd was found to be 967 ± 89.6 nM.

B2: p11 fC/hmC duplex (dsDNA)
DNA 1: AAAAAAAAAAACGAAAAAAAAAAA
DNA 2: TTTTTTTTTTTCGTTTTTTTTTTT
modifications: 5-formylcytosine at C12 of strand 1; 5-hydroxymethylcytosine at C12 of strand 2 (o3116/o3112)
Regarding B2, in series [1] (blunt), the Kd was determined as 541 ± 62.7 nM.

B3: p08 fC/mC duplex (dsDNA)
DNA 1: AAAAAAAAAAACGAAAAAAAAAAA
DNA 2: TTTTTTTTTTTCGTTTTTTTTTTT
modifications: 5-formylcytosine at C12 of strand 1; 5-methylcytosine at C12 of strand 2 (o3116/o2909)
Consider B3, for which the Kd in series [1] (blunt) amounted to 197 ± 24 nM.

B4: mC/fC duplex (dsDNA)
DNA 1: AAAAAAAAAAACGAAAAAAAAAAA
DNA 2: TTTTTTTTTTTCGTTTTTTTTTTT
modifications: 5-methylcytosine at C12 of one strand, 5-formylcytosine at C12 of the other; strand assignment not certain
In the case of B4, the binding result in series [2] is reported as “binds”.

B5: p06 mC/mC duplex (dsDNA)
DNA 1: AAAAAAAAAAACGAAAAAAAAAAA
DNA 2: TTTTTTTTTTTCGTTTTTTTTTTT
modifications: 5-methylcytosine at C12 of strand 1 and C12 of strand 2 (o2967/o2909)
B5: in series [1] (blunt), the Kd was found to be 26.6 ± 3.85 nM.

B6: hmC/fC duplex (dsDNA)
DNA 1: AAAAAAAAAAACGAAAAAAAAAAA
DNA 2: TTTTTTTTTTTCGTTTTTTTTTTT
modifications: 5-hydroxymethylcytosine at C12 of one strand, 5-formylcytosine at C12 of the other; strand assignment not certain
As to B6, the binding result in series [3] is reported as “binds”.

B7: p03 hmC/C duplex (dsDNA)
DNA 1: AAAAAAAAAAACGAAAAAAAAAAA
DNA 2: TTTTTTTTTTTCGTTTTTTTTTTT
modifications: 5-hydroxymethylcytosine at C12 of strand 1; strand 2 unmodified (o3115/o2904)
With B7, the Kd in series [1] (blunt) is 1080 ± 101 nM.

B8: probe p03 (dsDNA)
DNA 1: AAAAAAAAAAACGAAAAAAAAAAA
DNA 2: TTTTTTTTTTTCGTTTTTTTTTTT
modifications: cytosine states of p03 not given in the material (perhaps C/C)
In the case of B8, the Kd in series [4] worked out at 1080 ± 101 nM.

B9: p07 hmC/mC duplex (dsDNA)
DNA 1: AAAAAAAAAAACGAAAAAAAAAAA
DNA 2: TTTTTTTTTTTCGTTTTTTTTTTT
modifications: 5-hydroxymethylcytosine at C12 of strand 1; 5-methylcytosine at C12 of strand 2 (o3115/o2909)
Regarding B9, in series [1] (blunt), the Kd stood at 224 ± 24.6 nM.

B10: mC/hmC duplex (dsDNA)
DNA 1: AAAAAAAAAAACGAAAAAAAAAAA
DNA 2: TTTTTTTTTTTCGTTTTTTTTTTT
modifications: 5-methylcytosine at C12 of one strand, 5-hydroxymethylcytosine at C12 of the other; strand assignment not certain
In the case of B10, the binding result in series [5] was “binds”.
